In publication PMC3765157 (PLoS ONE, 2013):

Biological target: the molecule itself
Test: AUC

B1: PrP-like ectodomain of mouse ZIP5 (Mm_ZIP5, residues 20-207), secreted from mammalian cells, deglycosylated (domain or fragment)
chain: WVGGSVPNLGPAEQEQNHYLAQLFGLYGENGTLTAGGLARLLHSLGLGRVQGLRLGHHEPPTGRAAPTSGDNFTHRLQEPELSVDIWAGMPLGPSGWGDQEESKAPDLHGSGPSSLDLFQRLLLLDHSLADHLNEDCLNGSQLLVNFGLSPVAPLTPRQFALLSPALLYQIDSRVCIKTPAPAPPGDV
notes: also called ZIP5 ectodomain; PrP-like ZIP5 ectodomain
- stoichiometry N: ~2
